Test results: the supplement of paper PMC9732359
± gives the uncertainty stated by the source.

Test: protein stability index of a GFP-peptide fusion (yeast GPS) (PSI 1-4); higher = more stable; sorted into four equal gates, so the index is relative within each strain
How it was run: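 The protein stability index combines read frequencies across sorting gates, each weighted by its gate number and then summed. To obtain those frequencies, a pooled yeast library of GFP fusions to tiled 17-residue yeast protein peptides, on a plasmid also expressing Cherry, was grown to mid-log phase in leucine-free medium. The cells were sorted into four equal gates by GFP/Cherry ratio before plasmid amplification by PCR and Illumina sequencing.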

Sequence | protein stability index (doa10∆) | protein stability index (pdr5∆) | protein stability index (san1∆) | protein stability index (ubr1∆)
KRSTVPLNDGFVDLVEH [YML103C/NUP188] | 3.06 ± 0.09 | 2.97 ± 0.093 | 3.37 ± 0.12 | 2.69 ± 0.053
HHDYRSYYGIVCLMQIS [RRP6] | 2.03 ± 0.085 | 1.67 ± 0.067 | 1.32 ± 0.12 | 1.68 ± 0.076
QLDSKLMVFNDDTKNQD [YGR119C/NUP57] | 2.93 ± 0.062 | 2.75 ± 0.054 | 2.6 ± 0.057 | 2.91 ± 0.045
ILVPDLYHLVIMKFQSL [ECM29] | 1.28 ± 0.081 | 1.3 ± 0.086 | 1.12 ± 0.15 | 1.38 ± 0.063
VNYLISNTMYSVRLFSF [YJL039C/NUP192] | 1.43 ± 0.046 | 1.42 ± 0.058 | 1.34 ± 0.088 | 1.6 ± 0.056
TSPGFGVSSPGFSPTSP [RPO21] | 2.7 ± 0.077 | 2.66 ± 0.071 | 2.5 ± 0.058 | 2.93 ± 0.043
GKKASLNVGNVLPLGSV [RPL2A] | 2.4 ± 0.051 | 2.29 ± 0.057 | 2.51 ± 0.078 | 2.56 ± 0.042
GILLETISVPQIRDVME [RRP6] | 2.74 ± 0.072 | 2.56 ± 0.06 | 2.89 ± 0.056 | 2.64 ± 0.067
KAGGECITLDQLAVRAP [RPL18A] | 2.1 ± 0.097 | 2.29 ± 0.085 | 2.86 ± 0.072 | 2.57 ± 0.077
KVVKAIRIYFTEKDDNK [NUT1] | 2.31 ± 0.13 | 2.67 ± 0.07 | 2.55 ± 0.12 | 2.97 ± 0.056
RLQAKRLKDVEWVKLHR [RMP1] | 2.97 ± 0.069 | 3.09 ± 0.076 | 3.15 ± 0.056 | 2.03 ± 0.062
MAQTATQQQPGAPGANA [SRP54] | 3.31 ± 0.065 | 3.22 ± 0.088 | 3.33 ± 0.054 | 3.21 ± 0.05
AAKPDNLANFSNEVAMN [SWP82] | 3.32 ± 0.11 | 3.22 ± 0.088 | 3.15 ± 0.056 | 3.23 ± 0.067
ASAPLCSPKLPVEKVQR [DLS1] | 2.78 ± 0.068 | 3.07 ± 0.067 | 2.92 ± 0.053 | 3.03 ± 0.049
LYQSLTPQQLQMIQQRH [SNF5] | 1.77 ± 0.037 | 2.24 ± 0.04 | 1.69 ± 0.053 | 2.08 ± 0.033
CYVGLLTAIPILLEPIY [SNU114] | 1.31 ± 0.045 | 1.23 ± 0.035 | 1.28 ± 0.064 | 1.34 ± 0.038
QLGEWAGLGKIDREGNA [RPS12] | 3.67 ± 0.28 | – | 3.4 ± 0.26 | 3.35 ± 0.14
VSKKELYAIKKVTLNKE [BRR2] | 1.73 ± 0.072 | 2.01 ± 0.11 | – | 1.6 ± 0.085
QFSYLSSTLGIDLEDIK [PCI8] | 2.36 ± 0.064 | 2.23 ± 0.076 | 1.71 ± 0.12 | 2.01 ± 0.07
FMGTAFNQEGDYNFKYG [PRP8] | 3.02 ± 0.11 | 3.1 ± 0.09 | 3.34 ± 0.098 | 3.18 ± 0.072
QGNYPTTSYIKEQENIT [DPB4] | 3 ± 0.06 | 3.1 ± 0.06 | 3.02 ± 0.041 | 3.18 ± 0.075
NSSEEDKKKGQNVTSET [ITC1] | 3.5 ± 0.14 | 3.31 ± 0.17 | 3.06 ± 0.17 | 3.29 ± 0.11
RVRNKDIRKFLDGIYVS [RPL9A] | 1.91 ± 0.081 | 2.07 ± 0.087 | 2.05 ± 0.11 | 2.23 ± 0.062
AATMTSAPPPALPHVEI [RGR1] | 2.52 ± 0.072 | 2.83 ± 0.083 | 2.49 ± 0.079 | 2.3 ± 0.055
VDSGSNDAMAGGFTAYG [RPO21] | 3.26 ± 0.16 | – | 3.37 ± 0.26 | –
PVAKWFVKFITYLTQEI [SIN4] | 2.32 ± 0.048 | 1.88 ± 0.046 | 1.76 ± 0.078 | 2.07 ± 0.064

Sequence | protein stability index (doa10∆) | protein stability index (pdr5∆) | protein stability index (san1∆) | protein stability index (ubr1∆)
NSDDILSLHENYPQDEI [POP1] | 2.94 ± 0.06 | 3.12 ± 0.073 | 2.82 ± 0.084 | 2.92 ± 0.05
EDLLECLDRCKEQYNRY [MTR3] | 3.18 ± 0.11 | 3.46 ± 0.08 | 3.24 ± 0.079 | 3.38 ± 0.085
EYKLRSLTLSFIRHVAK [ECM29] | 2.49 ± 0.068 | 2.54 ± 0.062 | 2.77 ± 0.049 | 2.81 ± 0.046
DWQMMTSPVTGATEKRK [CSL4] | 2.44 ± 0.07 | 2.03 ± 0.11 | 2.3 ± 0.12 | 1.52 ± 0.062
TKSSKEFFNTLRKSRET [RRI2] | 2.63 ± 0.15 | 3.42 ± 0.13 | 3.06 ± 0.074 | 2.92 ± 0.11
QQQQQQQQQTSPPPQTH [SNF5] | 2.765 ± 0.011 | 2.862 ± 0.011 | 2.799 ± 0.01 | 2.824 ± 0.009
LSIQYMIQKVMEYLKSS [RPN5] | 1.38 ± 0.082 | 1.56 ± 0.082 | 1.59 ± 0.2 | 1.69 ± 0.11
GDLASLVLLNGRLRNKS [RPP1] | 2.83 ± 0.054 | 2.85 ± 0.041 | 2.83 ± 0.04 | 2.81 ± 0.038
YIFFGPIYYQKLKHMVL [RET1] | 1.2 ± 0.062 | 1.38 ± 0.1 | 1.28 ± 0.12 | 1.39 ± 0.062
YHRLSNKDMIKNLVKVL [CSN12] | 3.21 ± 0.26 | 2.97 ± 0.19 | 1.41 ± 0.25 | –
ANDHDESIDVDMDAESN [SMC3] | – | 2.37 ± 0.28 | – | 1.81 ± 0.25
VKGLLNTYKRLVIGIFK [YJL039C/NUP192] | 2.53 ± 0.061 | 2.46 ± 0.051 | 1.5 ± 0.11 | 2.2 ± 0.04
CYFRDFEYCRIDGSTSH [ISW2] | 2.51 ± 0.071 | 2.5 ± 0.079 | 2.48 ± 0.069 | 1.88 ± 0.042
KYKLISRIVEIFALCIY [YML103C/NUP188] | 1.58 ± 0.059 | 2.19 ± 0.055 | 1.86 ± 0.076 | 1.85 ± 0.059
FLKLANGGKFSKSNLIH [RGR1] | 2.65 ± 0.049 | 2.55 ± 0.061 | 2.87 ± 0.077 | 2.79 ± 0.059
SFGNREEFINKLVKAMN [RPL7B] | 2.03 ± 0.13 | 1.94 ± 0.17 | – | 2.75 ± 0.073
NKLEKLNSLLTYIKSEI [SMC4] | 2.73 ± 0.061 | 2.32 ± 0.045 | 2.66 ± 0.057 | 2.87 ± 0.036
MTVNDQPIEKNGDKMPL [YJR042W/NUP85] | 2.73 ± 0.066 | 3.04 ± 0.068 | 2.45 ± 0.086 | 3.1 ± 0.042
DQIEKLREVVELPLLSP [RPT1] | 2.76 ± 0.075 | 3 ± 0.054 | 2.87 ± 0.061 | 2.94 ± 0.073
RKYEISFGKIYVTKPMV [RPB2] | 1.95 ± 0.092 | 2.44 ± 0.21 | 1.88 ± 0.19 | 2.16 ± 0.11
EPNSAKKIRFLQLIIFL [RGR1] | 1.66 ± 0.11 | 2.42 ± 0.1 | 2.89 ± 0.3 | –
FQNSKSASLFKQRKNPR [RPL24A] | 2.11 ± 0.097 | 2.44 ± 0.077 | 2.49 ± 0.1 | 1.85 ± 0.053
SDIESANNQEYDLNFKL [SMC1] | 3.12 ± 0.29 | – | – | –
DLKLPPMDAYLKLNHII [SNU114] | 3.09 ± 0.28 | 2.94 ± 0.18 | 2.52 ± 0.099 | 2.68 ± 0.12
LSPSGHKTFLVANVKDL [RPL32] | – | 3.33 ± 0.26 | 2.84 ± 0.095 | 2.84 ± 0.17
SDSNANAAVAGVANTDT [SWI3] | 3.28 ± 0.063 | 3.33 ± 0.07 | 3.22 ± 0.044 | 2.91 ± 0.061
